These results are taken from article PMC11455607.

Read-outs that look alike come from different tables or passages of the source.

Data set [1] addresses CRX HD R90W (UniProt O43186 31-107, R90W). Briefly: BLI. For orientation: Biolayer interferometry detects binding as a change in optical thickness at a sensor tip.
For data set [2], the target named is T1, CRX HD R41Q (UniProt O43186 31-107, R41Q). Briefly: BLI.
For data set [3], the target named is T2, CRX HD E42K (UniProt O43186 31-107, E42K). Briefly: BLI.
For data set [4], the target named is CRX HD (His) (UniProt O43186 31-107). Briefly: BLI.
For data set [5], the target named is T3, Cy3-CRX HD;NRL DBD (;, UniProt O43186;P54845 31-107;128-237, |). The experiment in a line: smTIRFM.
Data set [6] deals with Cy3-CRX HD (UniProt O43186 31-107). The experiment in a line: smTIRFM.
Data set [7] deals with T3, Cy3-CRX HD;NRL DBD. Briefly: smTIRFM. The source holds these as a separate data set.
Data set [8] has as its target T1, CRX HD R41Q. The experiment in a line: SEC-MALS. A general note: In gel filtration, larger molecules generally elute earlier.
Data set [9] deals with T2, CRX HD E42K. The experiment in a line: SEC-MALS.

T2 sequence (O43186 31-107 E42K): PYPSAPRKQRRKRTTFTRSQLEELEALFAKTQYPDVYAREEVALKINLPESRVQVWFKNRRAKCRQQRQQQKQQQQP
T1 sequence (O43186 31-107 R41Q): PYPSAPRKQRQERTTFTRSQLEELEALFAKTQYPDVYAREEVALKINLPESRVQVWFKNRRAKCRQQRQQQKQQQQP
T3 sequence (O43186 31-107, chain 1 of 2): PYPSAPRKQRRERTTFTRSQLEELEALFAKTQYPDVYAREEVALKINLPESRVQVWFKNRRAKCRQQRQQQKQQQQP
T3 sequence (P54845 128-237, chain 2 of 2): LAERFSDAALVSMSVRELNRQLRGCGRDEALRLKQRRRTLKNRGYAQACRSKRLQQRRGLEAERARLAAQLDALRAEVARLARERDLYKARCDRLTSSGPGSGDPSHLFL
Sequence of CRX HD R90W (O43186 31-107 R90W): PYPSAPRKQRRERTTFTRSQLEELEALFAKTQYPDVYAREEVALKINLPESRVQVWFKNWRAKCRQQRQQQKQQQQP
Sequence of Cy3-CRX HD (O43186 31-107): as the sequence (O43186 31-107, chain 1 of 2) above
Sequence of CRX HD (His) (O43186 31-107): as the sequence (O43186 31-107, chain 1 of 2) above

B1: Ret4 20-mer biotinylated (dsDNA)
DNA 1: CAGGAGCTTAGGAGGGGGAG
DNA 2: CTCCCCCTCCTAAGCTCCTG
B1: the Kd in [1] was determined as 900 ± 30 nM; in [2] it was 1250 ± 30 nM; in data set [3] it was 30 ± 10 nM; in data set [4], 430 ± 30 nM.

B2: NRE-Ret4 38-mer biotinylated (dsDNA)
DNA 1: CCAGATGCTGATTCAGCCAGGAGCTTAGGAGGGGGAGG
DNA 2: CCTCCCCCTCCTAAGCTCCTGGCTGAATCAGCATCTGG
Turning to B2, the Kd was determined as 28 nM in data set [5], 55.1 nM in data set [6] and 39.6 nM in data set [7].

B3: Ret4 21-mer (dsDNA)
DNA 1: CCAGGAGCTTAGGAGGGGGAG
DNA 2: CCTCCCCCTCCTAAGCTCCTG
Consider B3, for which the binding result in data set [8] and in [9] was “binds” in each case.

One may read the Kd as the concentration at which binding is half-saturated.
